Measured values published in the Immune Epitope Database (IEDB).

How the values were obtained:
HLA-B*35:01 = experiment: IEDB peptide-MHC binding, purified MHC/competitive/fluorescence; filed as Kd, often an IC50 or EC50 that approximates it; ≥ and ≤ were set here for values at or beyond the usual limits of such assays
HLA-B*15:01 [1] = experiment: as above
HLA-A*02:11 = experiment: IEDB peptide-MHC binding, purified MHC/direct/fluorescence; filed as Kd, often an IC50 or EC50 that approximates it; ≥ and ≤ were set here for values at or beyond the usual limits of such assays; conditions: source organism: Influenza A virus H3N2
HLA-A*02:01 [2] = experiment: as above
HLA-A*31:01 = experiment: as above; conditions: source organism: Influenza A virus (A/swine/Cotes d'Armor/800/00(H1N2))
HLA-A*01:01 = experiment: as above
HLA-B*18:01 [3] = experiment: as above
HLA-A*03:01 [4] = experiment: as above
HLA-B*27:05 = experiment: as above
HLA-A*11:01 = experiment: as above
HLA-B*46:01 [5] = experiment: as above
HLA-B*40:01 = experiment: as above
HLA-A*24:02 = experiment: as above
HLA-B*08:01 = experiment: as above
HLA-A*69:01 [6] = experiment: as above
HLA-B*58:01 = experiment: as above
HLA-B*07:02 [7] = experiment: as above
HLA-B*44:02 = experiment: as above
HLA-A*02:16 [8] = experiment: as above; conditions: source organism: Influenza A virus H3N2
HLA-B*15:01 [9] = experiment: as above
HLA-B*15:09 = experiment: as above
HLA-B*27:03 = experiment: IEDB peptide-MHC binding, purified MHC/competitive/fluorescence; filed as Kd, often an IC50 or EC50 that approximates it; ≥ and ≤ were set here for values at or beyond the usual limits of such assays
HLA-A*02:01 [10] = experiment: as above
HLA-A*29:02 = experiment: as above
HLA-B*51:01 = experiment: as above
HLA-A*02:12 = experiment: as above; conditions: source organism: Cryptosporidium parvum Iowa II
HLA-B*18:01 [11] = experiment: as above
HLA-B*46:01 [12] = experiment: as above
HLA-B*39:01 = experiment: as above
HLA-A*02:03 = experiment: as above; conditions: source organism: Cryptosporidium parvum Iowa II
HLA-A*02:19 = experiment: as above
HLA-A*68:02 = experiment: as above; conditions: source organism: Cryptosporidium parvum Iowa II
HLA-A*69:01 [13] = experiment: as above; conditions: source organism: Cryptosporidium parvum Iowa II
HLA-B*57:01 = experiment: as above
HLA-A*02:16 [14] = experiment: as above; conditions: source organism: Cryptosporidium parvum Iowa II
HLA-A*26:01 = experiment: as above
HLA-B*07:02 [15] = experiment: as above; conditions: source organism: Influenza A virus (A/Harbin/1/1988(H1N2))
HLA-C*05:01 = experiment: IEDB peptide-MHC binding, purified MHC/direct/fluorescence; filed as Kd, often an IC50 or EC50 that approximates it; ≥ and ≤ were set here for values at or beyond the usual limits of such assays; conditions: source organism: Influenza A virus (A/Harbin/1/1988(H1N2))
HLA-B*08:02 = experiment: as above; conditions: source organism: Cryptosporidium parvum Iowa II
HLA-A*24:03 = experiment: as above; conditions: source organism: Orthohantavirus hantanense
HLA-A*23:01 = experiment: as above; conditions: source organism: Orthohantavirus hantanense
HLA-B*15:17 = experiment: IEDB peptide-MHC binding, purified MHC/competitive/fluorescence; filed as Kd, often an IC50 or EC50 that approximates it; ≥ and ≤ were set here for values at or beyond the usual limits of such assays; conditions: source organism: Rickettsia felis URRWXCal2
HLA-A*03:01 [16] = experiment: as above
[17] = source organism: Influenza A virus (A/Aichi/2/1994(H3N2))
[18] = source organism: Influenza A virus (A/Puerto Rico/8/34/Mount Sinai(H1N1))
[19] = source organism: Influenza A virus (A/swine/Cotes d'Armor/800/00(H1N2))
[20] = source organism: Giardia lamblia ATCC 50803
[21] = source organism: Cryptosporidium parvum Iowa II
[22] = source organism: Influenza A virus (A/Harbin/1/1988(H1N2))
[23] = source organism: Cryptosporidium parvum
[24] = source organism: Rickettsia felis URRWXCal2

Measured: Kd

FQNVNRITY
0.0751 µM: HLA-B*15:01 [1]; [17]
0.0394 µM: HLA-B*35:01; [17]

GMDPRMCSL
1.66 µM: HLA-B*07:02 [7]; [18]
0.019 µM: HLA-A*02:16 [8]
0.011 µM: HLA-A*02:11
≥ 20 µM: HLA-A*31:01 | HLA-A*01:01; [19] | HLA-B*18:01 [3]; [19] | HLA-A*03:01 [4]; [19] | HLA-B*27:05; [19] | HLA-A*11:01; [19] | HLA-B*46:01 [5]; [19] | HLA-B*40:01; [19] | HLA-A*24:02; [19] | HLA-A*69:01 [6]; [19] | HLA-B*58:01; [19] | HLA-B*44:02; [19] | HLA-B*15:01 [9]; [19]
6.22 µM: HLA-B*08:01; [18]
0.392 µM: HLA-A*02:01 [2]; [18]

IFKNLTKPL
≥ 20 µM: HLA-B*15:09; [20] | HLA-A*02:01 [2]; [20] | HLA-A*01:01; [20] | HLA-B*18:01 [3]; [20] | HLA-A*03:01 [4]; [20] | HLA-B*27:05; [20] | HLA-A*11:01; [20] | HLA-B*40:01; [20] | HLA-A*24:02; [20] | HLA-A*69:01 [6]; [20] | HLA-B*58:01; [20] | HLA-B*07:02 [7]; [20] | HLA-B*44:02; [20]
0.757 µM: HLA-B*15:01 [9]; [20]
0.774 µM: HLA-B*08:01; [20]

KSFSAGMFH
0.574 µM: HLA-B*57:01; [21]
≥ 20 µM: HLA-B*27:03; [21] | HLA-A*02:01 [10]; [21] | HLA-A*29:02; [21] | HLA-B*51:01; [21] | HLA-A*02:12 | HLA-B*18:01 [11]; [21] | HLA-B*46:01 [12]; [21] | HLA-B*39:01; [21] | HLA-A*02:03 | HLA-A*02:19; [21] | HLA-A*68:02 | HLA-A*69:01 [13] | HLA-A*02:16 [14] | HLA-A*26:01; [21]

LPFQNVHPV
0.0004 µM: HLA-B*35:01; [22]
≥ 20 µM: HLA-C*05:01
0.161 µM: HLA-B*07:02 [15]
1.49 µM: HLA-B*51:01; [22]

NTSTCFQEY
0.0305 µM: HLA-A*01:01; [23]
≥ 20 µM: HLA-B*15:09; [21] | HLA-A*02:01 [2]; [23] | HLA-B*08:02 | HLA-A*03:01 [4]; [23] | HLA-B*27:05; [23] | HLA-B*46:01 [5]; [23] | HLA-B*40:01; [23] | HLA-A*24:02; [23] | HLA-A*69:01 [6]; [23] | HLA-B*58:01; [23] | HLA-B*07:02 [7]; [23] | HLA-B*44:02; [23]
0.592 µM: HLA-B*15:01 [9]; [23]

QWLIEPCKL
0.155 µM: HLA-A*24:02; source organism: Orthohantavirus hantanense
0.18 µM: HLA-A*23:01
0.205 µM: HLA-A*24:03

QYLFSLTYV
≥ 20 µM: HLA-B*27:03; [24] | HLA-B*15:17 | HLA-B*51:01; [24] | HLA-A*03:01 [16]; [24] | HLA-B*46:01 [12]; [24] | HLA-B*39:01; [24] | HLA-A*02:19; [24] | HLA-B*57:01; [24] | HLA-B*15:01 [1]; [24] | HLA-A*26:01; [24]
8 µM: HLA-A*29:02; [24]
1.19 µM: HLA-A*02:01 [10]; [24]

RYMRVYNLW
0.002 µM: HLA-A*24:02; [20]

VVPSYIPLV
≥ 20 µM: HLA-B*27:03; source organism: Homo sapiens | HLA-A*29:02; source organism: Homo sapiens | HLA-B*18:01 [11]; source organism: Homo sapiens | HLA-A*03:01 [16]; source organism: Homo sapiens | HLA-B*46:01 [12]; source organism: Homo sapiens | HLA-B*39:01; source organism: Homo sapiens | HLA-B*57:01; source organism: Homo sapiens | HLA-B*15:01 [1]; source organism: Homo sapiens
0.0007 µM: HLA-A*02:01 [10]; source organism: Homo sapiens
